The source of these data is patent US7157224B2, “Screening and use of agents which block or activate intein splicing utilizing natural or homologous exteins” (priority 1992, dated 2007).

The assay addresses T1, Mtu DnaB intein (IVPS) (Mycobacterium tuberculosis, UniProt P9WMR3).
T1 sequence (P9WMR3 whole entry, looked up): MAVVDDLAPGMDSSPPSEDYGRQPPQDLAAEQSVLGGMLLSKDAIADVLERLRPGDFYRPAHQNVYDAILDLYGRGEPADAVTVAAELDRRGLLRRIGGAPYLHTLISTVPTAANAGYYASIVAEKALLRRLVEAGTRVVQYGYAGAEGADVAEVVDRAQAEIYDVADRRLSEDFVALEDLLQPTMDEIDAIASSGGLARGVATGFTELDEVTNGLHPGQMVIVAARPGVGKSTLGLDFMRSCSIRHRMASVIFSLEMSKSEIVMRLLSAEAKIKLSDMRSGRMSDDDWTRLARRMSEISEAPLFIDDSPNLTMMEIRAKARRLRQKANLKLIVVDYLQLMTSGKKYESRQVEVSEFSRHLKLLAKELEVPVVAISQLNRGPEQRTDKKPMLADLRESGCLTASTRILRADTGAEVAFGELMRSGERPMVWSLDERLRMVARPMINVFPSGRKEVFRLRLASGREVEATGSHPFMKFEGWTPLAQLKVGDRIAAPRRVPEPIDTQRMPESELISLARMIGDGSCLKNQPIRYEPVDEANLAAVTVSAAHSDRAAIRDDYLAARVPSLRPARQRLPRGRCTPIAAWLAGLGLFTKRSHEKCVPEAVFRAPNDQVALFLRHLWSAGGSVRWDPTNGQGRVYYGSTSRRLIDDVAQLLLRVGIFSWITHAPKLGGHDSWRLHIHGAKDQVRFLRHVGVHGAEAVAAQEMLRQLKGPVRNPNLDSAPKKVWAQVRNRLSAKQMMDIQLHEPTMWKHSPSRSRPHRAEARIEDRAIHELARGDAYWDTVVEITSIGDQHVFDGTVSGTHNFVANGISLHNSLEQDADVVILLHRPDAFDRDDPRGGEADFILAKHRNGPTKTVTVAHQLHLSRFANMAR
It is filed as cell-based. Particulars: E. coli, peptide in chicken α-spectrin loop on pEA825 (wild type Mtu dnaB), 37° C., 1 mM IPTG for 3 hours, crude cell extracts, anti-T7 tag immuno-staining.
As to DLPMVEE [pEA818rev, reference compound], the “protein splicing of the Mtu DnaB intein (detection of Mtu DnaB protein splicing products)” value (“protein splicing of the Mtu DnaB intein” below) is “occurred as efficiently as with the pMtu DnaB clone”.
For HPNPHPTLSGQR [pEA818], the “protein splicing of the Mtu DnaB intein” value is listed as “selected for inhibition of splicing”.
Turning to PTARTYE [pEA816], the “protein splicing of the Mtu DnaB intein” value is recorded as “selected for inhibition of splicing”.
Regarding PTRPTAPPLNFS [pEA817], the “protein splicing of the Mtu DnaB intein” value is “selected for inhibition of splicing”.
In the case of RPAPRPL [pEA815] it was “selected for inhibition of splicing”; in that of TVQSTKR [pEA814], “selected for inhibition of splicing”.
